Source: patent US20210301012A1 (UCB, published 2021)
Numbering of substitutions follows the chain as printed. Names may count otherwise.

B1: VHH6 (VHH)
VHH: DVQFVESGGGSVHAGGSLRLNCATSGYIYSTYCMGWFRQAPGKEREGVAHIYTNSGRTYYADSVKGRFTISQDNAKNTVYLQMNSLKPEDTAIYYCAARPSIRCASFSATEYKDWGQGTQVTVSS
notes: Camel single domain antibody expressed in Expi-HEK cells; The His tag was used for capture in Octet and in the NTA-chip SPR; also called wtVHH6; VHH6-6His; not shown: C-terminal TEV site and 6His tag (VHH6-6His)
B2: VHH6 K113A (VHH)
VHH: B1 VHH with K113A
notes: Tested as ExpiHEK supernatant; not shown: C-terminal His tag (captured on NTA chip)
B3: VHH6 K113A S101A (VHH)
VHH: B1 VHH with S101A, K113A
notes: Tested as ExpiHEK supernatant; also called Ser101Ala/Lys113Ala; 113/101 double mutant; not shown: C-terminal His tag (captured on NTA chip)
B4: VHH6 K113S S101A (VHH)
VHH: B1 VHH with S101A, K113S
notes: The text describes only alanine substitutions; not shown: C-terminal His tag (captured on NTA chip)
B5: VHH6 N74A (VHH)
VHH: B1 VHH with N74A
notes: as for B2
B6: VHH6 N74A S101A (VHH)
VHH: B1 VHH with N74A, S101A
notes: Tested as ExpiHEK supernatant; also called Asn74Ala/Ser101Ala; 74/101 double mutant; not shown: C-terminal His tag (captured on NTA chip)
B7: VHH6 S101A (VHH)
VHH: B1 VHH with S101A
notes: as for B2
B8: VHH6 Y27A (VHH)
VHH: B1 VHH with Y27A
notes: as for B2
B9: VHH6 Y27A Y32A (VHH)
VHH: B1 VHH with Y27A, Y32A
notes: Tested as ExpiHEK supernatant; also called 27/32 double mutant; not shown: C-terminal His tag (captured on NTA chip)
B10: VHH6 Y32A (VHH)
VHH: B1 VHH with Y32A
notes: as for B2
B11: gp80 (receptor, human, UniProt P08887 20-358, looked up)
chain: LAPRRCPAQEVARGVLTSLPGDSVTLTCPGVEPEDNATVHWVLRKPAAGSHPSRWAGMGRRLLLRSVQLHDSGNYSCYRAGRPAGTVHLLVDVPPEEPQLSCFRKSPLSNVVCEWGPRSTPSLTTKAVLLVRKFQNSPAEDFQEPCQYSQESQKFSCQLAVPEGDSSFYIVSMCVASSVGSKFSKTQTFQGCGILQPDPPANITVTAVARNPRWLSVTWQDPHSWNSSFYRLRFELRYRAERSKTFTTWMVKDLQHHCVIHDAWSGLRHVVQLRAQEEFGQGEWSEWSPEAMGTPWTESRSPPAENEVSTPMQALTTNKDDDNILFRDSANATSLPVQD
notes: Soluble gp80 as used in ELISA, MST, Octet, SEC and SPR; In part of the ELISA work the methods name gp80-hscFc (gp80 M1-P322, C211A, C277A, fused to single chain human IgG Fc); also called IL-6 receptor; CD126

Experiments:
IL-6 [1] = biological target: T1, IL-6 (human, UniProt P05231 28-212); assay: ELISA, plate coated with IL-6, absorbance 630 nm
T1 construct: IL-6 as used in ELISA, MST, Octet, SEC and SPR; also called interleukin-6; hIL-6
Procedure: ELISA—IL-6, gp80 and FusionIL-6 used in ELISA to coat plates were diluted to a final concentration of […] in carbonate buffer (0.16% Na₂CO₃ and 0.3% NaHCO₃ in H₂O). Coated plates were incubated at 4° C. overnight. The following day, the plates were washed twice in PBST, blocked in PBS/5% BSA for 2 h at RT, and again washed twice in PBST. For preliminary screening, either supernatant from HEK cells or purified VHHs was added. Anti-llama-HRP or anti-His-HRP antibody was added for 1 h at RT. Afterwards the plates were washed twice with PBST and developed with TMB substrate. The reaction was stopped by adding NaF. […]

gp80 = biological target: B11; assay: ELISA, plate coated with gp80, absorbance 630 nm
IL-6-gp80 complex [2] = biological target: T2, IL-6-gp80 complex (human, UniProt P05231 28-212; P08887 20-358); assay: SPR (BIAcore T200, 25 C), VHH6 immobilised, IL-6 titrated (0-250 nM) with gp80 constant at 2 uM
T2 construct: Non-covalent transient heterodimer formed by mixing IL-6 and gp80
Procedure: (§1) Quantitative SPR analysis was carried out using a BIAcore T200 (GE Healthcare). The binding measurements were performed at a flow rate of 100 μl/min. The protein of interest was injected for 180 s and the dissociation was monitored for 360 s. […] The sensor surface was regenerated with […] MgCl₂. Background subtraction binding curves were analyzed using the T200 evaluation software (version 1.0) following standard procedures. Due to the complexity of the interactions studied, the data analysis was limited to the most informative, in this case kd parameter, which was determined by fitting a single exponential decay model to dissociation data within 360 s range.

IL-6-gp80 complex [3] = biological target: T2, IL-6-gp80 complex; assay: SPR (BIAcore T200, 25 C), VHH6 immobilised, gp80 titrated (0-250 nM) with IL-6 constant at 2 uM
Procedure: as §1

IL-6-gp80 complex [4] = biological target: T2, IL-6-gp80 complex; assay: MicroScale Thermophoresis, VHH6 titrated into IL-6-NT647 + gp80 (panel IL-6-NT647+gp80+VHH6)
Excerpt: (§2) (a) ELISA: FusionIL-6, IL-6 or gp80 were immobilized overnight on plates. […] (b) MicroScale Thermophoresis (MST): IL-6 and gp80 were labelled with NT647.

IL-6-gp80 complex [5] = biological target: T2, IL-6-gp80 complex; assay: MicroScale Thermophoresis, VHH6 titrated into gp80-NT647 + IL-6 (panel gp80-NT647+IL-6+VHH6)
Excerpt: as §2

IL-6-gp80 complex [6] = biological target: T2, IL-6-gp80 complex; assay: SPR (BIAcore 3000), His-tagged VHH captured from supernatant on Ni-NTA chip, equimolar IL-6 + gp80 (50 nM each) injected
Procedure: (§3) SPR analysis was performed using a BIAcore 3000 (GE Healthcare). […] An equimolar mixture of IL-6 and gp80 (50 nM each) was injected for 300 s at a flow rate of 10 μl/min followed by a dissociation phase of 300 s. At the end of each cycle the chip surface was regenerated by injection of 350 mM EDTA (2×10 μl).
(§4) To assess the contributions of the side chains to binding, single alanine substitutions at positions 27, 32, 74, 101 and 113, and double alanine substitutions at positions 27/32, 74/101 and 113/101 were generated. […] In a three-component system, it is not possible to calculate meaningful association rate constants. However, the dissociation rate constants, being concentration independent, were determined.

IL-6-gp80 complex [7] = biological target: T2, IL-6-gp80 complex; assay: as above; remark: listed apart in the source
Procedure: as §3, §4

IL-6-gp80 complex [8] = biological target: T2, IL-6-gp80 complex; assay: SPR, VHH captured on Ni-NTA chip, IL-6 + gp80 injected; reference VHH6
Procedure: as §3, §4

IL-6 [9] = biological target: T1, IL-6; assay: SPR, IL-6 immobilised, gp80 injected, with VHH6 against without VHH6
Excerpt: For brevity, FIGS. 10a and b only report the SPR sensorgrams for IL-6 immobilization.

koff (IL-6-gp80 complex [6]) [s⁻¹] | koff (IL-6-gp80 complex [7]) [s⁻¹] | also measured | Binder
0.00036 | 0.00036 | binding result (IL-6 [1]): no binding; binding result (gp80): no binding; koff (IL-6-gp80 complex [2]): 0.000309 s⁻¹; koff (IL-6-gp80 complex [3]): 0.000375 s⁻¹; EC50 (read off the curve) (IL-6-gp80 complex [4]): ~30 nM; EC50 (read off the curve) (IL-6-gp80 complex [5]): ~60 nM | B1
0.00026 | – | – | B2
– | 0.00143 | fold increase of dissociation rate against VHH6 (IL-6-gp80 complex [8]): 4.3 fold | B3
– | 0.00164 | – | B4
0.00015 | – | – | B5
– | 0.00135 | fold increase of dissociation rate against VHH6 (IL-6-gp80 complex [8]): 3.8 fold | B6
0.00039 | – | – | B7
0.0007 | – | fold increase of dissociation rate against VHH6 (IL-6-gp80 complex [8]): 1.9 fold | B8
– | 0.00043 | – | B9
0.0003 | – | – | B10
– | – | fold reduction of koff by VHH6 (IL-6 [9]): 225 fold | B11
